Laboratory results: article PMC5241339, “Insights into binding of S100 proteins to scavenger receptors: class B scavenger receptor CD36 binds S100A12 with high affinity” (Amino Acids, 2016)
Values joined by “and” are separate entries in the source; they are usually repeats but may differ in a detail not shown here. Equal entries are not always repeated.

Target: T1, CD36 (His-tagged recombinant human protein, Sino Biological, Life technologies, 70-80 kDa) (human, UniProt P16671 30-439)
T1 construct: CD36, class B scavenger receptor, human, recombinant; also called Human recombinant CD36
T1 sequence (P16671 30-439): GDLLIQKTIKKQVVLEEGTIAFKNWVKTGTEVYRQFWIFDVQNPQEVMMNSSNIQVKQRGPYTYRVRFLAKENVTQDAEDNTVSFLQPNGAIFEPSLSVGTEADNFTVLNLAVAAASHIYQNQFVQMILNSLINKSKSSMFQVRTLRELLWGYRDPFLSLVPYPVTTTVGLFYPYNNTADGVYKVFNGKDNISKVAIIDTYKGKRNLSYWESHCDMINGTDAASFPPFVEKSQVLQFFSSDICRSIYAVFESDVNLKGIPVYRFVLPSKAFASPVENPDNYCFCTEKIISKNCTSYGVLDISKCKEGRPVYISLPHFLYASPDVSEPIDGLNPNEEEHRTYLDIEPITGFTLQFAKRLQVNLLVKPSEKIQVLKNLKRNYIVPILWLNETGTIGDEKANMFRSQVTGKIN
Assay: SPR; Biacore T100; CD36 immobilized by amine coupling on a C1 chip (1000 RU); S100A12 species as analyte 0.62-50.0 nM, single cycle kinetics, 30 µL/min, 25 °C; HBS-P+ with 350 µM CaCl2; two-state reaction model
Conditions: both partners purified

- Kd: 1.04 nM and 0.9 nM
B1: commercially available native human S100A12 protein (nS100A12) (natural protein, UniProt P80511 1-92, looked up)
chain: MTKLEEHLEGIVNIFHQYSVRKGHFDTLSKGELKQLLTKELANTIKNIKDKAVIDEIFQGLDANQDEQVDFQEFISLVAIALKAAHYHTHKE
notes: S100A12, human, untagged; Called 'native' in the methods and 'untagged recombinant' in the results; also called human, untagged recombinant nS100A12
